Patent publication US20250277790A1

Key:
[1] = molecular target: L834R EGFR tagged with mTurquoise at the C-terminus, in plasma membrane-derived vesicles from transfected CHO cells (human) (UniProt P00533); assay: cell-based or functional assay
[2] = molecular target: human EGFR tagged with the fluorescent protein mTurquoise at the C-terminus (wild-type), in plasma membrane-derived vesicles from transfected CHO cells (human) (UniProt P00533); assay: cell-based or functional assay

Epiregulin (1195EP025 CF, R&D Systems), sequence (O14944 63-108 limits assumed): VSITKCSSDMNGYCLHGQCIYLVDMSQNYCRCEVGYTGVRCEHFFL

Substance: Epiregulin (1195EP025 CF, R&D Systems) (from UniProt O14944 63-108) (ligand)
- EC50 of Y1068 phosphorylation per EGFR molecule [1]: 5.8 nM
- EC50 of Y1173 phosphorylation per EGFR molecule [1]: 0.7 nM
- Etop of Y1068 phosphorylation per EGFR molecule [1]: 0.2
- Etop of Y1173 phosphorylation per EGFR molecule [1]: 0.09
- EC50 of Y1068 phosphorylation per EGFR molecule [2]: 19.5 nM
- EC50 of Y1173 phosphorylation per EGFR molecule [2]: 16.2 nM
- Etop of Y1068 phosphorylation per EGFR molecule [2]: 0.43
- Etop of Y1173 phosphorylation per EGFR molecule [2]: 0.16
- βlig (Y1068 vs Y1173), lig vs rho-mEGF [2]: -0.23

Substance: TGFα (239A100, R&D Systems) (from UniProt P01135 40-89) (ligand)
- EC50 of Y1068 phosphorylation per EGFR molecule [1]: 3.2 nM
- EC50 of Y1173 phosphorylation per EGFR molecule [1]: 0.3 nM
- Etop of Y1068 phosphorylation per EGFR molecule [1]: 0.17
- Etop of Y1173 phosphorylation per EGFR molecule [1]: 0.12
- EC50 of Y1068 phosphorylation per EGFR molecule [2]: 3.4 nM
- EC50 of Y1173 phosphorylation per EGFR molecule [2]: 5.2 nM
- Etop of Y1068 phosphorylation per EGFR molecule [2]: 0.59
- Etop of Y1173 phosphorylation per EGFR molecule [2]: 0.17
- βlig (Y1068 vs Y1173), lig vs rho-mEGF [2]: 0.13
